# Results: patent US20060134122A1, “Peptides of syndecan-1 for inhibition of cancer” (priority 2004, published 2006)
# B1: GST-mS1ED: recombinant mouse syndecan-1 ectodomain expressed as a fusion protein with GST (protein)
# chain: QIVAVNVPPEDQDGSGDDSDNFSGSGTGALPDTLSRQTPSTWKDVWLLTATPTAPEPTSSNTETAFTSVLPAGEKPEEGEPVLHVEAEPGFTARDKEKEVTTRPRETVQLPITQRASTVRVTTAQAAVTSHPHGGMQPGLHETSAPTAPGQPDHQPPRVEGGGTSVIKEVVEDGTANQLPAGEGSGEQDFTFETSGENTAVAAVEPGLRNQPPVDEGATGASQSLLDRKEVLG
# modifications: left off: a dimerising Fc or GST
# notes: recombinant mouse syndecan-1 ectodomain expressed as a fusion protein with GST
# B2: GST-mS4ED: recombinant GST fusion of mouse syndecan-4 ectodomain, specificity control (protein)
# chain: ESIRETEVIDPQDLLEGRYFSGALPDDEDAGGSDDFELSGSGDLDDTEEPRPFPEVIEPLVPLDNHIPENAQPGIRVPSEPKELEENEVIPKRAPSDVGDDMSNKVSMSSTAQGSNIFERTE
# modifications: left off: a dimerising Fc or GST
# notes: recombinant GST fusion of mouse syndecan-4 ectodomain, specificity control
# How the values were obtained:
# B82L fibroblasts = assay: B82L cell attachment and spreading; assay type: cell-based, mouse; details: for cell attachment and spreading on VN: 5 μg/mL VN, S1ED 1-30 μM, GST and GST-mS4ED 30 μM
# Excerpt: FIGS. 11A-F—Downregulation of mouse Sdc-1 expression by siRNA blocks αvβ5-dependent cell attachment and spreading on VN. FACS analysis for (FIG. 11A) mouse syndecan-1 (mAb 281.2), (FIG. 11B) αv integrin subunit (mAb H9.2B8), (FIG. 11C) mouse Syndecan-4 (mAb KY8.2), (FIG. 11D) human syndecan-1 (mAb B-B4) and (FIG. 11E) FcR^ecto-hS1 chimera (FITC-conjugated hIgG) expression against isotype IgG controls (red-fill) in vector^NEO (FIGS. 11A-C), human syndecan-1 (FIG. 11D) and FcR^ecto-hS1 (FIG. 11E) expressing B82L cells 48 h after transfection with either 600 nM control (Control) or mouse syndecan-1-specific siRNA (siRNA). (FIG. 11F) B82L^NEO empty vector-transfected control cells and B82L cells expressing human syndecan-1 or the FcR^ecto-hS1 chimera were transfected with control or mouse syndecan-1-specific siRNA and seeded on wells coated with either 5 μg/mL VN alone or a mixed substratum of VN plus 60 μg/mL of antibody directed against mouse syndecan-1 (281.2), human syndecan-1 (B-B4) or the FcR^ecto-hS1 chimera (hIgG). Cells were incubated at 37° C. for 2 h, fixed, and stained with rhodamine-conjugated phalloidin.
# FIGS. 12A-B—B82L cell spreading on VN is blocked by recombinant Scd-1ED. (FIG. 12A) B82L fibroblasts were plated on 5 μg/mL VN in the absence of other treatment, or in the presence of 30 μM GST, 1-30 μM GST-mS1ED or 30 μM GST-mS4ED (inset), then fixed and stained with rhodamine-phalloidin for visualization. (FIG. 12B) Quantification of cell adhesion in triplicate samples (±S.E.) plated either with no additions, or concentrations of GST-mS1ED ranging from 0-30 μM. […]
# The failure of NEO cells to engage the mixed substratum is indicative of the efficient blockade of mouse Sdc-1 expression by the siRNA. It is unlikely that the mouse Sdc-1-siRNA treatment has any non-specific cellular effects since spreading on VN is specifically rescued by the expression of full-length human Sdc-1 (hS1, FIG. 11F). Spreading of the B82L-hS1 cells is indistinguishable from parental cells. However, spreading on VN is not recovered in cells expressing the FcR^ecto-hS1 chimera—a construct in which the syndecan's ectodomain is replaced by the ectodomain of the human Fcγ receptor Ia (FcR^ecto-hS1)—regardless of whether the cells are plated on VN alone, or VN supplemented with 60 μg/mL of hIgG to engage the FcR^ecto-hS1 construct.
# Recombinant Sdc-1 ectodomain competitively blocks αvβ5 integin activity. To test whether soluble Sdc-1 ectodomain will compete with the syndecan activation of the αvβ5 integrin, B82L cells were plated on 5 μg/mL VN in the presence of a recombinant GST fusion protein containing either the ectodomain of mouse Sdc-1 (GST-mS1ED) or human Sdc-1 (GST-hS1ED; data not shown).
# [1] = test system: MDA-MB-435 human mammary carcinoma cells; assay: Cell spreading assay, MDA-MB-435; assay type: cell-based; details: 2 h, GST-mS1ED 20 μM; for cell spreading on VN: 10 μg/mL VN, LM609 30 μg/mL
# Description: FIGS. 2A-C—Sdc-1 adhesion-mediated cell spreading correlates with αvβ3 integrin. expression and activity. (FIG. 2A) FACS analysis of αvβ3 integrin expression (mAb LM609) in human mammary carcinoma cells against an IgG isotype control. (FIG. 2B) Depicted on split panels are phalloidin-stained MDA-MB-435 (upper half) and MCF-7 (lower half) cells 2 h after plating on wells coated with mAb B-B4 in plating medium alone or medium containing either 30 μg/mL mAb LM609, 1 μg/mL mAb 13 or 20 μM GST-mS1ED. Bar, 50 μm. (FIG. 2C) Untreated MDA-MB-435, MDA-MB-231 and MCF-7 cells (columns 1 and 4) and cells pretreated in suspension with 1 μg/mL mAb 13 (columns 2 and 3) were seeded on wells coated with either mAb B-B4 or COL I in plating medium alone (columns 1, 2 and 4) or medium containing 20 μM GST-mS1ED (column 3). Cells were incubated at 37° C. for 2 h, fixed, permeabilized and stained with WOW1 and an Alexa 488-conjugated secondary. Panel insets are corresponding phase contrast pictures. Bar, 20 μm.
# FIG. 3—MDA-MB-435, but not MCF-7, human carcinoma cells display functional coupling of Sdc-1 and αvβ3 integrins on VN. Depicted are phalloidin-stained cells 2 h after plating on wells coated with 10 μg/mL VN (upper half) or FN (lower half) in plating medium alone or medium containing either 30 μg/mL mAb LM609, 25 μg/mL mAb 13, 20 μM GST-mS1ED or -mS4ED. Bar, 50 μm.
# Sdc-1 adhesion-mediated cell spreading correlates with αvβ3 integrin expression and activity. To test whether the αvβ3 integrin's dependence on Sdc-1 extends to other carcinoma cells, the inventors screened a panel of human carcinoma cells with mAb LM609 using FACS analysis. […] To test the collaboration between Sdc-1 and αvβ3 integrin when cells are adherent via Sdc-1, MDA-MB-435 and MCF-7 cells were plated on wells coated with hS1-specific mAb B-B4. While αvβ3-positive MDA-MB-435 cells spread on this antibody substratum, their spreading is blocked (similar to results obtained in the MDA-MB-231; Beauvais and Rapraeger, 2003) by treatment with either mAb LM609 (added either before plating or 30 min after plating, when cells have already begun to spread) or GST-mS1ED protein (which is not recognized by mAb B-B4).
# MDA-MB-435, but not MCF-7, human carcinoma cells display functional coupling of Sdc-1 and αvβ3 integrin on VN. To test whether activation of αvβ3 integrin activation on matrix is also functionally coupled to Sdc-1, MDA-MB-435 and MCF-7 cells were plated on either VN or FN (FIG. 3). MDA-MB-435 cells spread on VN and require αvβ3 integrins for this activity as spreading is blocked by mAb LM609. […]
Molecule,cell attachment and spreading on VN (B82L fibroblasts),lowest concentration tested at which competition occurs (B82L fibroblasts; cells plated on 5 μg/mL VN) [µM],"cell spreading on FN ([1]; 10 μg/mL FN, mAb 13 25 μg/mL)",cell spreading on VN [1],cell spreading on mAb B-B4 ([1]; LM609 30 μg/mL (before or 30 min after plating))
B1,increasing blockade,1,retain their ability to spread,fail to spread,blocked
B2,without effect,–,–,no effect,–
